Experimental data taken from the supplement of paper PMC5998384.

Key:
HeLa Kyoto [1] = test: thermal stability score vs G1/S (z-score of summed log2 fold changes over temperatures); higher = more thermally stable than in G1/S
HeLa Kyoto [2] = test: melting temperature (median over replicates), in situ; higher = more thermally stable
HeLa Kyoto [3] = test: solubility change mitosis vs G1/S (difference of NP-40 vs SDS log2 ratios) (log2 ratio difference); higher = more soluble in mitosis
HeLa Kyoto [4] = test: solubility in G1/S (NP-40 vs SDS abundance) (log2 ratio); higher = more soluble; conditions: cell cycle stage: G1/S
[5] = cell cycle stage: early G1 (4.5 h after nocodazole release)
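Wherever melting temperature (median over replicates), in situ is given: HeLa Kyoto cells synchronized by double thymidine or nocodazole block, proteins quantified by TMT10plex mass spectrometry, three independent biological replicates.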
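Wherever solubility change mitosis vs G1/S (difference of NP-40 vs SDS log2 ratios) is given: synchronized HeLa Kyoto cells (double thymidine block for G1/S, nocodazole release for mitosis), protein amounts in NP-40 versus SDS lysates quantified by mass spectrometry, three biological replicates.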
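Wherever solubility in G1/S (NP-40 vs SDS abundance) is given: HeLa Kyoto cells arrested at G1/S by double thymidine block, proteins quantified by TMT10plex mass spectrometry in mild NP-40 versus SDS extracts, three biological replicates.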
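Wherever thermal stability score vs G1/S (z-score of summed log2 fold changes over temperatures) is given: synchronized HeLa Kyoto cells, proteins quantified by TMT10plex mass spectrometry, three biological replicates, mitosis taken 0.5 h after nocodazole release, G1/S directly after double thymidine block.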

Chain of COL5A2 (chain, as listed by the source): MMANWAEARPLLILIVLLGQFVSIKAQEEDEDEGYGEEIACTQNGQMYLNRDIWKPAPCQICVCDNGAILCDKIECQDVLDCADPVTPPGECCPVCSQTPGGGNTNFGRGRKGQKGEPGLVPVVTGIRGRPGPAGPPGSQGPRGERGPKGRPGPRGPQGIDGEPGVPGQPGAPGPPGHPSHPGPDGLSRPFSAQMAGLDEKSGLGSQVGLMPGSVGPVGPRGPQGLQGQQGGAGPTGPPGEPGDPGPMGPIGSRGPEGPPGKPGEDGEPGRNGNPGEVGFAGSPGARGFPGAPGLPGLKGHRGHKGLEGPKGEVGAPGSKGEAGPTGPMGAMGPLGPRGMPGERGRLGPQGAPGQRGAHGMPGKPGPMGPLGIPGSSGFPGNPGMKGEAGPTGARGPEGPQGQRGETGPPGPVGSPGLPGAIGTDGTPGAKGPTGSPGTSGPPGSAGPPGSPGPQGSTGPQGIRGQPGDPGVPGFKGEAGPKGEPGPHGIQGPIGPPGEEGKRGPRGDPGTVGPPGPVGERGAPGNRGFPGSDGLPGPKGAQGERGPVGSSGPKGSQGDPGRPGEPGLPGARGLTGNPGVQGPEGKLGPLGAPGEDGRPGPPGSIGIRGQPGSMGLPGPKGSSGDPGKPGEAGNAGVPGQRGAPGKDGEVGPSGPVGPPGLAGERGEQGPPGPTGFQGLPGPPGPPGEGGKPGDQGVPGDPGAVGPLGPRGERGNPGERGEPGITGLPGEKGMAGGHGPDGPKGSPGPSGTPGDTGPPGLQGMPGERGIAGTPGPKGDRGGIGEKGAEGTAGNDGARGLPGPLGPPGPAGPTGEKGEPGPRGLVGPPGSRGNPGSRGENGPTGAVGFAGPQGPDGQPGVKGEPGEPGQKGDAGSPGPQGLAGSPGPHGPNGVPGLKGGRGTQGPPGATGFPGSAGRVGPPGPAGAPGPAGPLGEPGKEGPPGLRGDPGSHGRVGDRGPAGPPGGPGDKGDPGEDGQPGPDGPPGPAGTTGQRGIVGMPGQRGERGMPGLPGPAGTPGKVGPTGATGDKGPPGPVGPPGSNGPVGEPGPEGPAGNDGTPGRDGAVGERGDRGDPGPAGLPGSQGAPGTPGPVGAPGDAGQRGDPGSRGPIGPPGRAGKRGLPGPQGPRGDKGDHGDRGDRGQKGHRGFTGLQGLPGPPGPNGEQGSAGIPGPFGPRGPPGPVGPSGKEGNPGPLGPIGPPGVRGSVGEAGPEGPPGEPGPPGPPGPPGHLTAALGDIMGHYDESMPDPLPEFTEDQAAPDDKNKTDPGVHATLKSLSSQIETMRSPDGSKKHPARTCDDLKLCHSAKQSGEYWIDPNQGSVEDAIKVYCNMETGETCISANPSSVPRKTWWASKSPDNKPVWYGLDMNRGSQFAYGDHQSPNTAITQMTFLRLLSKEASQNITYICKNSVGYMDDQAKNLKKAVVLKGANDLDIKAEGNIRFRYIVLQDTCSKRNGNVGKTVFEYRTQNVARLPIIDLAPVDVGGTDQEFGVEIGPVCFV
Chain of CIAO1 (chain, as listed by the source): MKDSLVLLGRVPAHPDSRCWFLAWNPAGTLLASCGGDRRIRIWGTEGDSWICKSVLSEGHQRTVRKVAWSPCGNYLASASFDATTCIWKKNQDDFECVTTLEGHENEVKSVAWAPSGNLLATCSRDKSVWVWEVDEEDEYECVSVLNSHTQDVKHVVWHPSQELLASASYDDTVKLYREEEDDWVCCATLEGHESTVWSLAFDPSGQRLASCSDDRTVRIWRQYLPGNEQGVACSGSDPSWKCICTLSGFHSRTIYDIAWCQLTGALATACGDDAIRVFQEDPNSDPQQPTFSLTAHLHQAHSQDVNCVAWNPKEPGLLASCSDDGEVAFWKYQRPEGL
Chain of C5ORF22 (chain, as listed by the source): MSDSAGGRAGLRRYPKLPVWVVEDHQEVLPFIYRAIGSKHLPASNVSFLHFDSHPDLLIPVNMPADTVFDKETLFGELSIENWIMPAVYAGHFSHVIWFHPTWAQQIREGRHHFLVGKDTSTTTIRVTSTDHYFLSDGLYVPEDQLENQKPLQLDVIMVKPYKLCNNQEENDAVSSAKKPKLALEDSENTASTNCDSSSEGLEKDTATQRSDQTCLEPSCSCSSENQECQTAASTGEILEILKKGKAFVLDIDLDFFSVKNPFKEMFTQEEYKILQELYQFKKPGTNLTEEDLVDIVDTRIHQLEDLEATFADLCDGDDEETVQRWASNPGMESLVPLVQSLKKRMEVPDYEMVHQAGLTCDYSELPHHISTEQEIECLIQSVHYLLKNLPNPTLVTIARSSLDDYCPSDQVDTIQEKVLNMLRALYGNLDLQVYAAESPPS
Chain of ACP2 (chain, as listed by the source): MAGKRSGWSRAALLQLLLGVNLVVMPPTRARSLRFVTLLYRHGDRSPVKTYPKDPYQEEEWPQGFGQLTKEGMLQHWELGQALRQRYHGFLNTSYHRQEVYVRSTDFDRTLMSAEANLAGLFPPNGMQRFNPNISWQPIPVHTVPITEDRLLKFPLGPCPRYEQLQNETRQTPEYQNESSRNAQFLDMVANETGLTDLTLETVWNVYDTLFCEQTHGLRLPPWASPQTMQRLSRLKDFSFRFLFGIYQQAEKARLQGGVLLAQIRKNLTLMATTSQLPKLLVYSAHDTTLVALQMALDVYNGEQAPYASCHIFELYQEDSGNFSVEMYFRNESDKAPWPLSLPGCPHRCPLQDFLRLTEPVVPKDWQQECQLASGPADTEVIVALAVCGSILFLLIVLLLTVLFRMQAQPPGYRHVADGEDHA
Chain of AFG3L2 (chain, as listed by the source): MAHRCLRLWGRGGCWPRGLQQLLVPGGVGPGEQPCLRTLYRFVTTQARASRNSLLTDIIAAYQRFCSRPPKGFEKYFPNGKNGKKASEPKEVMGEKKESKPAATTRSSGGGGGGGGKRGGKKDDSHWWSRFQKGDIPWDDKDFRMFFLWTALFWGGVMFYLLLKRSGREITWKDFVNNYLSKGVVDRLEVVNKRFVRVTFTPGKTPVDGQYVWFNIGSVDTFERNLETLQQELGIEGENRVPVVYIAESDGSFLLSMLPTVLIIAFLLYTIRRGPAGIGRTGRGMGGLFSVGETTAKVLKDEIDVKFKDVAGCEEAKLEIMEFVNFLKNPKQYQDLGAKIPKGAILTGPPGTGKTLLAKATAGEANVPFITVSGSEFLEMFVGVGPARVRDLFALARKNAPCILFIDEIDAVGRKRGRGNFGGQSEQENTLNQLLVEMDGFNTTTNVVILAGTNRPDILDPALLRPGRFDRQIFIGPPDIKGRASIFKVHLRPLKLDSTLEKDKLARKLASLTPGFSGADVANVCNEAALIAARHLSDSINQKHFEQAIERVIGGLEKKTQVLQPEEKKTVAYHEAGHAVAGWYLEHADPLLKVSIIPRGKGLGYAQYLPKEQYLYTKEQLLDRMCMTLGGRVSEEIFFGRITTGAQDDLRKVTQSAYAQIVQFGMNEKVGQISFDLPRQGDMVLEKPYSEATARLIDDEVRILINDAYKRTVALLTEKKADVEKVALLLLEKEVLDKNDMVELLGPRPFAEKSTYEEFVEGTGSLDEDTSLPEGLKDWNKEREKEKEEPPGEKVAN
Chain of ALDH16A1 (chain, as listed by the source): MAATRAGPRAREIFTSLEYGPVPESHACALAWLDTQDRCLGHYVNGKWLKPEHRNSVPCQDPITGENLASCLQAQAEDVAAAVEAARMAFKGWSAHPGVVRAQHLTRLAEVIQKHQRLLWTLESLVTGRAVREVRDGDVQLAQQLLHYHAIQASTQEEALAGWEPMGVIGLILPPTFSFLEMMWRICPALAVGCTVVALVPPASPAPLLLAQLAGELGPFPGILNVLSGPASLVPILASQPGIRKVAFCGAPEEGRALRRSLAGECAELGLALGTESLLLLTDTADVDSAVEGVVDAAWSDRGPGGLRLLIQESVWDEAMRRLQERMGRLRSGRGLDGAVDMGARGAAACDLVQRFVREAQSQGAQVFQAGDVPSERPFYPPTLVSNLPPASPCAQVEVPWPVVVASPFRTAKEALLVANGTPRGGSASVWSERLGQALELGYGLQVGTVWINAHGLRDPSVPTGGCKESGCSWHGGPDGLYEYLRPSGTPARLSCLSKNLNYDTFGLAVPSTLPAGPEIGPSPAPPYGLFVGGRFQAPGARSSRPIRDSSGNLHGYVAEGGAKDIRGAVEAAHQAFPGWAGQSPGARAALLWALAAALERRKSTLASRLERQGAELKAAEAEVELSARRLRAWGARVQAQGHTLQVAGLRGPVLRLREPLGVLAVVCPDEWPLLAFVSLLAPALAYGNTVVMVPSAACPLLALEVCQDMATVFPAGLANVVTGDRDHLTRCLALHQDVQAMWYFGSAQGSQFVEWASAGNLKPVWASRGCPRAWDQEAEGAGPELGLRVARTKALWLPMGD
Chain of DCK (chain, as listed by the source): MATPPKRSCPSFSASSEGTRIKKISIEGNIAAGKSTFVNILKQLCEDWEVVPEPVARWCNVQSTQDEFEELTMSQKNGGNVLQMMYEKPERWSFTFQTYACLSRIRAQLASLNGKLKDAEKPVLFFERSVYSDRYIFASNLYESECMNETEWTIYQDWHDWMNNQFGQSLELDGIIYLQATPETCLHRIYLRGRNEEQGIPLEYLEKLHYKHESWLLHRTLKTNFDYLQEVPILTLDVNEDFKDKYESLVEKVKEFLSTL
Chain of CSNK2B (chain, as listed by the source): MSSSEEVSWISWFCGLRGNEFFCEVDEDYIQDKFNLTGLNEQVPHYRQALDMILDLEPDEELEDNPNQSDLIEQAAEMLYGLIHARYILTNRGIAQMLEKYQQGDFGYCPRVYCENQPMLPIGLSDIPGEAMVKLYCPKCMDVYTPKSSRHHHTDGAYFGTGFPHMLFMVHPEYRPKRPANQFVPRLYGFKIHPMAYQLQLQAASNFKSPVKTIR

| Substance | thermal stability score (HeLa Kyoto [1]; [5]) | thermal stability score (HeLa Kyoto [1]; cell cycle stage: mitosis) | melting temperature (HeLa Kyoto [2]; cell cycle stage: G1/S) [°C] | melting temperature (HeLa Kyoto [2]; cell cycle stage: mitosis) [°C] | solubility change mitosis (log2) (HeLa Kyoto [3]) | solubility in G1/S (log2) (HeLa Kyoto [4]) |
| --- | --- | --- | --- | --- | --- | --- |
| ABCC2 | 0.294 | -0.626 | 51.6 | 51.6 | -0.0305 | -0.128 |
| ABCC5 | -0.48 | -1.25 | 53.6 | 53.8 | 0.0132 | -0.243 |
| ACP2 | -1.34 | -0.755 | 56.1 | 57.2 | 0.018 | 0.434 |
| AFG3L2 | 2.84 | 0.443 | 51.8 | 51.9 | -0.0792 | 0.107 |
| AGAP3 | 0.047 | 0.315 | 49.3 | 49.9 | -0.0465 | 0.259 |
| AGL | -0.229 | -0.757 | 51.1 | 50.6 | -0.204 | -0.215 |
| AHCTF1 | -1.63 | -0.353 | 50.7 | 50.5 | 1.06 | -1.38 |
| ALDH16A1 | -4.57 | -4.01 | 58 | 56.3 | -0.043 | 0.152 |
| ARHGEF5 | 0.0128 | 1.32 | 50.6 | 51.4 | -0.0134 | 0.0254 |
| ARNT | 0.603 | 0.868 | 51.9 | 51.7 | -0.182 | 0.243 |
| ASNA1 | 0.0219 | 1.19 | 53.4 | 54.6 | -0.258 | 0.349 |
| ATG3 | 0.129 | -0.694 | 54.3 | 54.1 | -0.0379 | 0.11 |
| BAG3 | 1.43 | 5.24 | 53.6 | 53.1 | 1.06 | 0.185 |
| BAZ1A | 1.48 | 3.95 | 45.9 | 49 | 0.356 | -0.551 |
| BOD1L1 | -3.05 | -3.12 | 56 | 56 | 0.0131 | -0.161 |
| C5ORF22 | -0.108 | 1.41 | 50.7 |  | -0.166 | 0.303 |
| CAMSAP1 | -0.2 | 0.324 | 50.4 | 50.2 | 0.0139 | -0.149 |

| Substance | thermal stability score (HeLa Kyoto [1]; [5]) | thermal stability score (HeLa Kyoto [1]; cell cycle stage: mitosis) | melting temperature (HeLa Kyoto [2]; cell cycle stage: G1/S) [°C] | melting temperature (HeLa Kyoto [2]; cell cycle stage: mitosis) [°C] | solubility change mitosis (log2) (HeLa Kyoto [3]) | solubility in G1/S (log2) (HeLa Kyoto [4]) |
| --- | --- | --- | --- | --- | --- | --- |
| CASKIN2 | 0.8 | 1.68 | 49.4 | 48.8 | -0.0911 | 0.412 |
| CCDC88A | -0.404 | 1.05 | 49 | 49 | -0.1 | 0.124 |
| CDK13 | -0.541 | 0.202 | 50.9 | 52.5 | 0.194 | -0.604 |
| CHD4 | 3.38 | 8.56 | 46.9 | 49.1 | 0.0937 | -0.471 |
| CIAO1 | -0.588 | -2.26 | 52.5 | 52.9 | -0.176 | -0.222 |
| CKAP5 | -0.177 | -0.509 | 49.6 | 49.2 | -0.078 | 0.0443 |
| CLPX | 2.55 | 0.77 | 50.6 | 50.2 | -0.0641 | 0.103 |
| COL5A2 | 2.88 | 0.949 | 54.6 | 57.9 | 0.0391 | -0.0207 |
| CSNK2B | 0.696 | 0.623 | 50.8 | 51.1 | 0.0236 | 0.227 |
| CTBP2 | -2.44 | -6.63 | 55.3 | 53.4 | -0.0285 | 0.144 |
| DCK | 2.05 | 2.37 | 53.9 | 53.1 | -0.103 | 0.17 |
| DENND4C | 0.187 | 0.554 | 50.6 | 50.8 | -0.154 | 0.0629 |
| DHRS1 | 0.897 | 0.418 | 50.7 | 51 | 0.0211 | 0.111 |
| DIDO1 | 0.743 | 4.5 | 49.1 | 49.8 | 0.231 | -0.458 |
| DMD | 0.00802 | 0.278 | 49.9 | 50.2 | -0.235 | 0.235 |
| DOCK10 | -1.12 | -0.873 | 52.3 | 51.8 | -0.143 | -0.189 |
| DOCK11 | 0.076 | -0.52 | 51.4 | 51.5 | -0.145 | -0.234 |
